From patent US20120027722A1 (MEDICAL RESEARCH COUNCIL, published 2012)
Residue numbers refer to the chain shown, from its start. Numbers in names are those of the source. Where two headings read alike, the source gives them in different places. No end group written: not given here.

What was measured:
[1] = biological target: T1, E2 peptide C2 (Hepatitis C virus, genotype 1a (Table 5), not fully specified (residue 16, C-terminus)); experiment: peptide ELISA: biotinylated peptide on streptavidin plate, COS7 supernatant, anti-human kappa HRP, OD 655 nm
T1 peptide: QLINTNGSWHVNGSGK

[2] = biological target: T2, AP33 mimotope peptide H6; experiment: as above
T2 construct: captured on streptavidin plates; also called mimotope H6; H6 peptide
T2 peptide: VELRNLGGTWRPGSGK-biotin

[3] = biological target: T3, E2 peptide B1 (Hepatitis C virus, genotype 2b (Table 5)); experiment: as above
[4] = biological target: T4, Peptide D3; experiment: as above
T4 construct: member of the group m28

[5] = biological target: T2, AP33 mimotope peptide H6; experiment: as above
[6] = biological target: T2, AP33 mimotope peptide H6; experiment: as above
[7] = biological target: T2, AP33 mimotope peptide H6; experiment: as above
[8] = biological target: T3, E2 peptide B1; experiment: as above; remark: listed apart in the source
[9] = biological target: T4, Peptide D3; experiment: as above; remark: listed apart in the source
[10] = biological target: HCV E1E2 glycoproteins, genotype 3a isolate F4/2-35 (on HCVpp) (Hepatitis C virus genotype 3a (F4/2-35)); experiment: cell-based or functional assay
[11] = biological target: HCV E1E2 glycoproteins, isolate 2A2.4 (on HCVpp) (Hepatitis C virus genotype 2 (2A2.4)); experiment: cell-based or functional assay
[12] = biological target: HCV E1E2 glycoproteins, isolate 4.21.16 (on HCVpp) (Hepatitis C virus genotype 4 (4.21.16)); experiment: cell-based or functional assay
[13] = biological target: HCV E1E2 glycoproteins, isolate 6.5.8 (on HCVpp) (Hepatitis C virus genotype 6 (6.5.8)); experiment: cell-based or functional assay
[14] = biological target: HCV E1E2 glycoproteins, genotype 2a isolate JFH1 (on HCVpp) (Hepatitis C virus genotype 2a (JFH1), UniProt Q99IB8 192-383; Q99IB8 384-750); experiment: cell-based or functional assay
[15] = biological target: T2, AP33 mimotope peptide H6; experiment: peptide ELISA: biotinylated peptide on streptavidin plate, COS7 supernatant, anti-human kappa HRP, OD 655 nm
[16] = biological target: T2, AP33 mimotope peptide H6; experiment: as above
[17] = biological target: T3, E2 peptide B1; experiment: as above; remark: listed apart in the source
[18] = biological target: T4, Peptide D3; experiment: as above; remark: listed apart in the source
[19] = biological target: HCV E1E2 glycoproteins, isolate 2B1.1 (on HCVpp) (Hepatitis C virus genotype 2 (2B1.1)); experiment: cell-based or functional assay
[20] = biological target: HCV E1E2 glycoproteins, isolate 1B5.23 (on HCVpp) (Hepatitis C virus genotype 1 (1B5.23)); experiment: cell-based or functional assay
[21] = biological target: HCV E1E2 glycoproteins, isolate 1A20.8 (on HCVpp) (Hepatitis C virus genotype 1 (1A20.8)); experiment: cell-based or functional assay
[22] = biological target: HCV E1E2 glycoproteins, isolate 5.15.11 (on HCVpp) (Hepatitis C virus genotype 5 (5.15.11)); experiment: cell-based or functional assay
[23] = biological target: T1, E2 peptide C2; experiment: peptide ELISA: biotinylated peptide on streptavidin plate, COS7 supernatant, normalised as percentage of H6 binding
[24] = biological target: T4, Peptide D3
[25] = biological target: T3, E2 peptide B1; experiment: peptide ELISA, COS7 supernatants, normalized to H6 binding

B1: AP33 RH-D/RK2bc (antibody, V domains shown)
VH: QVQLQESGPGLVKPSETLSLTCTVSGDSITSGYWNWIRQPPGRALEYIGYISYSGSTYYNLSLRSRITISRDTSKNQYSLRLSSVTAADTAMYYCALITTTTYAMDYWGQGTTVTVS
VL: EIVLTQSPSSLSASVGDRVTITCRASESVDGYGNSFLHWFQQKPGKAPKLLIYLASNLNSGVPSRFSGSGSRTDFTLTISSLQPEDFATYYCQQNNVDPWTFGQGTKLEIK
notes: COS7 supernatant
binding result [1]: binds | EC50 (read off the curve) [2]: ~0.04 µg/mL | binding result [3]: no binding (tested: about 950 ng/ml) | EC50 (read off the curve) [4]: ~0.04 µg/mL

B2: Vh/RK2bc (antibody, V domains shown)
VH: EVQLQESGPSLVKPSQTLSLTCSVTGDSITSGYWNWIRKFPGNKLEYMGYISYSGSTYYNLSLRSRISITRDTSKNQYYLQLNSVTTEDTATYYCALITTTTYAMDYWGQGTSVTVS
VL: B1 VL
notes: COS7 supernatant; also called chimeric AP33 heavy chain Vh with humanized light chain RK2bc
binding result [5]: binds

B3: RHI/Vl (humanized heavy chain RHI with chimeric light chain) (antibody, V domains shown)
VH: B1 VH with Q39K, I48M
VL: NIVLTQSPVSLAVSLGQRATISCRASESVDGYGNSFLHWFQQKPGQPPKLLIYLASNLNSGVPARFSGSGSRTDFTLTIDPVEADDAATYYCQQNNVDPWTFGGGTKLEIK
notes: Human IgG1/kappa from vectors pG1D200 and pKN100, COS7 expression
binding result [6]: binds

B4: AP33 RH-E/RK2bc (antibody, V domains shown)
VH: B1 VH with I48M, I67V
VL: B1 VL
notes: COS7 supernatant
binding result [7]: binds | binding result [8]: no binding (tested: about 800 ng/ml) | binding result [9]: binds

B5: RHA/Vl (humanized heavy chain RHA with chimeric light chain) (antibody, V domains shown)
VH: B1 VH with T30S, Y47W, I67V, R71V, Y78F, L97R
VL: B3 VL
notes: as for B3
binding result [5]: binds

B6: humanized AP33 antibody RHb-h/RK2b (antibody, V domains shown)
VH: B1 VH with I48M
VL: B1 VL with R72G
IC50 of HCVpp infection (Huh-7, luciferase) [10]: 1.15 µg/mL | IC90 of HCVpp infection (Huh-7, luciferase) [10]: 8.3 µg/mL | IC50 of HCVpp infection (Huh-7, luciferase) [11]: 1.7 µg/mL | IC90 of HCVpp infection (Huh-7, luciferase) [11]: 20 µg/mL | IC50 of HCVpp infection (Huh-7, luciferase) [12]: 0.33 µg/mL | IC90 of HCVpp infection (Huh-7, luciferase) [12]: 3.64 µg/mL | IC50 of HCVpp infection (Huh-7, luciferase) [13]: < 0.41 µg/mL | IC90 of HCVpp infection (Huh-7, luciferase) [13]: 3.7 µg/mL | IC50 of HCVpp infection (Huh-7, luciferase) [14]: 2.7 µg/mL | IC90 of HCVpp infection (Huh-7, luciferase) [14]: 22.1 µg/mL | EC50 (read off the curve) [15]: ~0.04 µg/mL

B7: humanized AP33 antibody RH-G/RK2bc (antibody, V domains shown)
VH: B1 VH with I48M, Y78F
VL: B1 VL
binding result [16]: binds | binding result [17]: no binding (tested: about 750 ng/ml) | binding result [18]: binds

B8: humanized AP33 antibody RHA/RK2bc (antibody, V domains shown)
VH: B1 VH with T30S, Y47W, I67V, R71V, Y78F, L97R
VL: B1 VL
notes: Human IgG1/kappa from vectors pG1D200 and pKN100, COS7 expression; also called AP33RHA/RK2bc
binding result [5]: binds

B9: humanized AP33 antibody RHI/RK2bc (antibody, V domains shown)
VH: B1 VH with Q39K, I48M
VL: B1 VL
notes: RHI is RHb-h with Q39K; Human IgG1/kappa from vectors pG1D200 and pKN100, COS7 expression; also called RHI (Q39K)/RK2bc
binding result [6]: binds

B10: chimeric AP33 antibody (Vh/Vl) (antibody, V domains shown)
VH: B2 VH
VL: B3 VL
notes: also called Vh/V1; chimeric antibody
binding result [5]: binds | IC50 of HCVpp infection (Huh-7, luciferase) [19]: 3 µg/mL | IC90 of HCVpp infection (Huh-7, luciferase) [19]: > 15 µg/mL | IC50 of HCVpp infection (Huh-7, luciferase) [20]: 1.15 µg/mL | IC90 of HCVpp infection (Huh-7, luciferase) [20]: 11 µg/mL | IC50 of HCVpp infection (Huh-7, luciferase) [10]: 0.48 µg/mL | IC90 of HCVpp infection (Huh-7, luciferase) [10]: 3.2 µg/mL | IC50 of HCVpp infection (Huh-7, luciferase) [11]: 0.88 µg/mL | IC90 of HCVpp infection (Huh-7, luciferase) [11]: 6.67 µg/mL | IC50 of HCVpp infection (Huh-7, luciferase) [12]: < 0.137 µg/mL | IC90 of HCVpp infection (Huh-7, luciferase) [12]: 0.83 µg/mL | IC50 of HCVpp infection (Huh-7, luciferase) [21]: 1.1 µg/mL | IC90 of HCVpp infection (Huh-7, luciferase) [21]: 11.5 µg/mL | IC50 of HCVpp infection (Huh-7, luciferase) [22]: 0.088 µg/mL | IC90 of HCVpp infection (Huh-7, luciferase) [22]: 1.11 µg/mL | IC50 of HCVpp infection (Huh-7, luciferase) [13]: < 0.137 µg/mL | IC90 of HCVpp infection (Huh-7, luciferase) [13]: 3.7 µg/mL | IC50 of HCVpp infection (Huh-7, luciferase) [14]: 1.1 µg/mL | IC90 of HCVpp infection (Huh-7, luciferase) [14]: 9.31 µg/mL | binding result [23]: binds

B11: chimeric AP33 heavy chain mutant Y47W with chimeric light chain Vl (antibody, V domains shown)
VH: B2 VH with Y47W
VL: B3 VL
notes: also called AP33 Y47W
EC50 (read off the curve) [24]: ~0.03 µg/mL | binding result [23]: binds | binding result [25]: binds

B12: chimeric AP33 heavy chain mutant Y47F with chimeric light chain Vl (antibody, V domains shown)
VH: B2 VH with Y47F
VL: B3 VL
notes: also called AP33 Y47F
EC50 (read off the curve) [24]: ~0.02 µg/mL | binding result [23]: binds | binding result [25]: binds
